Drawing on publication PMC12013513 (2025), this text covers response for one variant.

B1: GST-ANI-1^C-term (681-1159 AA) [C. elegans] / 10xHis-RHO-1^WT (wild type RHO-1, 1-188 AA) [C. elegans] (parent complex)
chain 1: DDDATTQFPVPERSRKSSSQLAYSVSFYRKIQRDRNEESSTVLAGPVISQISPSAPPMSSSLTSQQKLRQLTTGPANGARIVESAKDAHDRIKRAIQVEEQLVAQSKRAMILARDKPSFRGSREEFEAQWAMLRHVEKHRALLTEYDRLKRDGPRIIDGPRGTITVSQLSVNMARDYVSANIASSKKSDEVFYFAAILRYGEQVDVSKMVTSDGGLNRRGVLEFPVPLMLTGIPPDFRATVEIYGQRSMRESTSHEDKYKLKNSTFKAKTRNTFLGGGSTSSANQSLFVDPAASSSSTSSTTSNFNLLGTFSFDINCPGKHLYNMSHTVYPLEGITQMKVRKQAIDGADITYHGFLSMYQRTGEGLGSWTRYWCALENGEMKFWKQPEDEGTKGYTALMDLSTCCRSEGASVVEDICPFPNSFHIDVWAPKMDTSDPRGIERLRVMLAADTAQDLQTWLSLINSTSKQLCTWRNPIVNQ
chain 2: not shown

This assay covers variants of B1. As to the kind of experiment: pull-down; parent: 14; read off a plot.
As to chain 1 A109D, chain 1 E127K, the response is ~17 % of Bound RHO-1.
